Laboratory results as given in the supplement of paper PMC9112550, “Optimization of the antimicrobial peptide Bac7 by deep mutational scanning” (BMC Biology, 2022).

These sequences were tested on Escherichia coli TOP10 (assay: shrunken log2 fold change of peptide-encoding DNA abundance (4.5 h post-induction vs induction); higher = less antimicrobial activity (less host growth inhibition)). Conditions: time post-induction: 4.5 h; library: site-saturation at positions 5, 18, 19, 20.
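Further: peptides expressed intracellularly from a pBAD plasmid library in pooled LB shake-flask culture, induced with 0.3% L-arabinose, DNA abundance read by NGS, three biological replicates, DESeq2 with apeglm shrinkage.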

Row | Sequence | shrunken log2 fold change
1 | RRIRWRPPRLPRPRPRPVMVPRP | 0.0467
2 | RRIRFRPPRLPRPRPRPNNCPRP | -0.167
3 | RRIRRRPPRLPRPRPRPCEIPRP | 0.0684
4 | RRIRRRPPRLPRPRPRPSSAPRP | 0.421
5 | RRIRFRPPRLPRPRPRPWYIPRP | -0.623
6 | RRIRNRPPRLPRPRPRPLFKPRP | -1.08
7 | RRIRCRPPRLPRPRPRPICYPRP | -0.358
8 | RRIRHRPPRLPRPRPRPHPDPRP | -0.206
9 | RRIRQRPPRLPRPRPRPVRCPRP | 0.841
10 | RRIRDRPPRLPRPRPRPNQHPRP | -0.283
11 | RRIRTRPPRLPRPRPRPYDAPRP | 0.0888
12 | RRIRDRPPRLPRPRPRPFTTPRP | -0.132
13 | RRIRRRPPRLPRPRPRPVLGPRP | 0.528
14 | RRIRFRPPRLPRPRPRPCMRPRP | 0.0466
15 | RRIRCRPPRLPRPRPRPQPTPRP | 0.319
16 | RRIRQRPPRLPRPRPRPGKKPRP | 0.0943
17 | RRIRWRPPRLPRPRPRPNNMPRP | -0.345
18 | RRIRERPPRLPRPRPRPAKNPRP | -0.0998
19 | RRIRARPPRLPRPRPRPGQSPRP | 0.266
20 | RRIRQRPPRLPRPRPRPHVIPRP | -0.186
21 | RRIRGRPPRLPRPRPRPRLQPRP | 0.759
22 | RRIRLRPPRLPRPRPRPSQCPRP | -0.114
23 | RRIRGRPPRLPRPRPRPGMGPRP | 0.963
24 | RRIRLRPPRLPRPRPRPNGPPRP | -0.146
25 | RRIRHRPPRLPRPRPRPSIWPRP | -0.244

Row | Sequence | shrunken log2 fold change
26 | RRIRFRPPRLPRPRPRPLWYPRP | -0.721
27 | RRIRHRPPRLPRPRPRPWMRPRP | 0.101
28 | RRIRFRPPRLPRPRPRPYPIPRP | -0.281
29 | RRIRTRPPRLPRPRPRPNPSPRP | -0.128
30 | RRIRYRPPRLPRPRPRPFKEPRP | -0.146
31 | RRIRERPPRLPRPRPRPLTSPRP | -0.00875
32 | RRIRFRPPRLPRPRPRPCMGPRP | -0.49
33 | RRIRKRPPRLPRPRPRPQYVPRP | -0.143
34 | RRIRHRPPRLPRPRPRPLRAPRP | 0.513
35 | RRIRLRPPRLPRPRPRPAWYPRP | 0.0232
36 | RRIRERPPRLPRPRPRPQFKPRP | -0.444
37 | RRIRIRPPRLPRPRPRPFNLPRP | -0.496
38 | RRIRNRPPRLPRPRPRPQCPPRP | -0.33
39 | RRIRPRPPRLPRPRPRPLSKPRP | 0.14
40 | RRIRVRPPRLPRPRPRPPCDPRP | 0.52
41 | RRIRRRPPRLPRPRPRPEHLPRP | 0.242
42 | RRIRCRPPRLPRPRPRPDMRPRP | 0.018
43 | RRIRGRPPRLPRPRPRPSQFPRP | 0.192
44 | RRIRKRPPRLPRPRPRPKMCPRP | -0.0224
45 | RRIRCRPPRLPRPRPRPQGGPRP | -0.107
46 | RRIRQRPPRLPRPRPRPLKAPRP | -0.253
47 | RRIRYRPPRLPRPRPRPCGCPRP | -0.0582
48 | RRIRHRPPRLPRPRPRPPLHPRP | 0.0208
49 | RRIRPRPPRLPRPRPRPHFVPRP | -0.144
50 | RRIRTRPPRLPRPRPRPYETPRP | -0.00043

Row | Sequence | shrunken log2 fold change
51 | RRIRMRPPRLPRPRPRPFLTPRP | 0.0674
52 | RRIRFRPPRLPRPRPRPITYPRP | -0.472
53 | RRIRERPPRLPRPRPRPRYEPRP | -0.276
54 | RRIRDRPPRLPRPRPRPYMHPRP | -0.275
55 | RRIRRRPPRLPRPRPRPKVNPRP | 0.468
56 | RRIRIRPPRLPRPRPRPIPVPRP | -0.0943
57 | RRIRLRPPRLPRPRPRPWRPPRP | 0.105
58 | RRIRVRPPRLPRPRPRPLHSPRP | -0.0269
59 | RRIRCRPPRLPRPRPRPGPFPRP | -0.0444
60 | RRIRGRPPRLPRPRPRPVGVPRP | 1.08
61 | RRIRHRPPRLPRPRPRPFYYPRP | -0.0287
62 | RRIRARPPRLPRPRPRPQHFPRP | 3.55
63 | RRIRQRPPRLPRPRPRPDAPPRP | 0.655
64 | RRIRIRPPRLPRPRPRPDLTPRP | -0.00701
65 | RRIRARPPRLPRPRPRPDVGPRP | 0.0285
66 | RRIRCRPPRLPRPRPRPHHDPRP | -0.58
67 | RRIRLRPPRLPRPRPRPMYQPRP | -0.29
68 | RRIRARPPRLPRPRPRPSANPRP | 0.344
69 | RRIRRRPPRLPRPRPRPEPGPRP | 0.587
70 | RRIRPRPPRLPRPRPRPVSAPRP | 0.249
71 | RRIRQRPPRLPRPRPRPEVLPRP | 0.0411
72 | RRIRLRPPRLPRPRPRPYGRPRP | -0.2
73 | RRIRNRPPRLPRPRPRPKSVPRP | 0.0186
74 | RRIRQRPPRLPRPRPRPVEKPRP | 0.0119
75 | RRIRHRPPRLPRPRPRPGHDPRP | 0.0104

Row | Sequence | shrunken log2 fold change
76 | RRIRLRPPRLPRPRPRPWQRPRP | -0.161
77 | RRIRARPPRLPRPRPRPMVPPRP | 0.0221
78 | RRIRGRPPRLPRPRPRPFGLPRP | -0.0119
79 | RRIRSRPPRLPRPRPRPVHTPRP | 0.0158
80 | RRIRGRPPRLPRPRPRPVNMPRP | 0.189
81 | RRIRRRPPRLPRPRPRPSTSPRP | 0.0625
82 | RRIRWRPPRLPRPRPRPWCSPRP | -0.329
83 | RRIRGRPPRLPRPRPRPHYLPRP | -0.295
84 | RRIRSRPPRLPRPRPRPPATPRP | 0.725
85 | RRIRERPPRLPRPRPRPKQFPRP | -0.0933
86 | RRIRHRPPRLPRPRPRPHKAPRP | -0.31
87 | RRIRARPPRLPRPRPRPKLDPRP | 0.655
88 | RRIRRRPPRLPRPRPRPYDEPRP | -0.302
89 | RRIRWRPPRLPRPRPRPMNVPRP | 0.0542
90 | RRIRQRPPRLPRPRPRPQYDPRP | -0.081
91 | RRIRQRPPRLPRPRPRPNIGPRP | -0.0212
92 | RRIRPRPPRLPRPRPRPAWHPRP | 0.362
93 | RRIRFRPPRLPRPRPRPEVWPRP | 0.273
94 | RRIRFRPPRLPRPRPRPLWRPRP | 0.32
95 | RRIRDRPPRLPRPRPRPMKMPRP | 0.0275
96 | RRIRPRPPRLPRPRPRPMKLPRP | -0.0874
97 | RRIRMRPPRLPRPRPRPCQRPRP | 0.0132
98 | RRIRIRPPRLPRPRPRPKSPPRP | -0.0939
99 | RRIRFRPPRLPRPRPRPNMQPRP | -0.846
100 | RRIRHRPPRLPRPRPRPCWEPRP | 0.153

Row | Sequence | shrunken log2 fold change
101 | RRIRFRPPRLPRPRPRPAWIPRP | -0.106
102 | RRIRNRPPRLPRPRPRPLGFPRP | 0.0608
103 | RRIRFRPPRLPRPRPRPPDNPRP | -0.115
104 | RRIRHRPPRLPRPRPRPMWFPRP | -0.218
105 | RRIRERPPRLPRPRPRPEHRPRP | -0.0185
106 | RRIRTRPPRLPRPRPRPAWGPRP | 0.142
107 | RRIRLRPPRLPRPRPRPLWGPRP | 0.151
108 | RRIRMRPPRLPRPRPRPDKWPRP | 0.934
109 | RRIRMRPPRLPRPRPRPRVSPRP | 0.0315
110 | RRIRVRPPRLPRPRPRPQYVPRP | -0.262
111 | RRIRMRPPRLPRPRPRPKNWPRP | 0.671
112 | RRIRRRPPRLPRPRPRPAKSPRP | 0.242
113 | RRIRSRPPRLPRPRPRPETSPRP | 0.358
114 | RRIRGRPPRLPRPRPRPCQTPRP | 0.0774
115 | RRIRTRPPRLPRPRPRPGFIPRP | -0.585
116 | RRIRCRPPRLPRPRPRPIINPRP | -0.325
117 | RRIRVRPPRLPRPRPRPDWYPRP | -0.0357
118 | RRIRNRPPRLPRPRPRPRRPPRP | 0.3
119 | RRIRPRPPRLPRPRPRPRIQPRP | 0.389
120 | RRIRIRPPRLPRPRPRPSIGPRP | -0.333
121 | RRIRLRPPRLPRPRPRPAIAPRP | 0.118
122 | RRIRHRPPRLPRPRPRPQCYPRP | -0.75
123 | RRIRDRPPRLPRPRPRPNFFPRP | 0.144
124 | RRIRDRPPRLPRPRPRPLKTPRP | 0.333
125 | RRIRYRPPRLPRPRPRPACFPRP | -0.166

Row | Sequence | shrunken log2 fold change
126 | RRIRNRPPRLPRPRPRPSRNPRP | 0.0074
127 | RRIRQRPPRLPRPRPRPKLMPRP | -0.082
128 | RRIRRRPPRLPRPRPRPRDSPRP | -0.0748
129 | RRIRMRPPRLPRPRPRPSCWPRP | 0.594
130 | RRIRFRPPRLPRPRPRPGWWPRP | -0.0573
131 | RRIRPRPPRLPRPRPRPSQNPRP | -0.107
132 | RRIRMRPPRLPRPRPRPASQPRP | 0.174
133 | RRIRSRPPRLPRPRPRPCVYPRP | -0.0613
134 | RRIRGRPPRLPRPRPRPPKIPRP | 0.835
135 | RRIRARPPRLPRPRPRPSYPPRP | -0.312
136 | RRIRCRPPRLPRPRPRPVPYPRP | -0.533
137 | RRIRHRPPRLPRPRPRPGTYPRP | -0.0156
138 | RRIRERPPRLPRPRPRPRFYPRP | -0.115
139 | RRIRSRPPRLPRPRPRPIEDPRP | 0.0359
140 | RRIRQRPPRLPRPRPRPPPRPRP | 1.25
141 | RRIRFRPPRLPRPRPRPRQNPRP | 0.353
142 | RRIRVRPPRLPRPRPRPMDQPRP | 0.188
143 | RRIRCRPPRLPRPRPRPCYSPRP | -0.379
144 | RRIRNRPPRLPRPRPRPHGMPRP | -0.0652
145 | RRIRMRPPRLPRPRPRPNMAPRP | 0.155
146 | RRIRDRPPRLPRPRPRPHHDPRP | -0.336
147 | RRIRFRPPRLPRPRPRPWHNPRP | 0.0654
148 | RRIRCRPPRLPRPRPRPQDIPRP | -0.213
149 | RRIRLRPPRLPRPRPRPYKAPRP | -0.112
150 | RRIRYRPPRLPRPRPRPSMDPRP | -1.85
